Assay results taken from EP4242303A1 (Novozymes A/S, dated 2023).
Where two headings read alike, the source gives them in different places.

T1: deamidase polypeptide from Chryseobacterium sp-62563 (deamidase domain of the pro-form SEQ ID NO: 5) (Chryseobacterium sp-62563)
T1 chain: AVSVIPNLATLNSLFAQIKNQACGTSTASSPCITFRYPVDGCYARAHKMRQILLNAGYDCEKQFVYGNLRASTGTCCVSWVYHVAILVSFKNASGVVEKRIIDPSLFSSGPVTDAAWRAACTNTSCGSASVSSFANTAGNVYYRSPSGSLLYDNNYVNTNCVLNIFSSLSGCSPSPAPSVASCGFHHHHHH

T2: deamidase polypeptide from Chryseobacterium defluvii (deamidase domain of the fusion polypeptide SEQ ID NO: … (Chryseobacterium defluvii))
T2 chain: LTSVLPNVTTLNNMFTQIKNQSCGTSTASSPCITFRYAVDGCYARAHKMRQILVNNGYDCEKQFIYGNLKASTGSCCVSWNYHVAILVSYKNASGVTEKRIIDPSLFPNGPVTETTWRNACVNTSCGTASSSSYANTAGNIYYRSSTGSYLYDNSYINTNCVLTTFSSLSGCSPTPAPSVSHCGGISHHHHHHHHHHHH

T3: deamidase polypeptide from Chryseobacterium culicis (deamidase domain of the fusion polypeptide SEQ ID NO: 15) (Chryseobacterium culicis)
T3 chain: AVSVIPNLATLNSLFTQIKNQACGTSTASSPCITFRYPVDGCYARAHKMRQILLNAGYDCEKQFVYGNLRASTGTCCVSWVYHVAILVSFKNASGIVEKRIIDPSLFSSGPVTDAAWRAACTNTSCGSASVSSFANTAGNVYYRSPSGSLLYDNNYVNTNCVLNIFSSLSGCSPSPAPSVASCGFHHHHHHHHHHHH

T4: deamidase polypeptide from Chryseobacterium gambrini (deamidase domain of the fusion polypeptide SEQ ID NO: … (Chryseobacterium gambrini))
T4 chain: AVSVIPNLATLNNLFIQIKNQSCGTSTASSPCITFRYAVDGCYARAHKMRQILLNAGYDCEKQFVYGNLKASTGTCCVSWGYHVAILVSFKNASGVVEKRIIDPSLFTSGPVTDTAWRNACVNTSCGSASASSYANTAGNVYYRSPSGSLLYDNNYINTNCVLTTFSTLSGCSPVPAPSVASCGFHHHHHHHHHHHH

B1: propeptide from Chryseobacterium sp-62563 (wildtype propeptide domain of the protein glutamine deamidase pro-form SEQ ID NO: 5) (other)
chain: NQDPNLVAKESNETAMKDFGKTVPVGIEKEDGKFKISFMVTAQPYEIKDSKENAAYISMIKTAVENETPIHVFLKANTNEIAKVDKATDDDIRYFKSVFTKEVKEENRK
B2: variant deamidase propeptide Y94P of Chryseobacterium sp-62563 (SEQ ID NO: 2) (other)
chain: NQDPNLVAKESNETAMKDFGKTVPVGIEKEDGKFKISFMVTAQPYEIKDSKENAAYISMIKTAVENETPIHVFLKANTNEIAKVDKATDDDIRPFKSVFTKEVKEENRK
B3: variant deamidase propeptide V23S of Chryseobacterium sp-62563 (SEQ ID NO: 2) (other)
chain: NQDPNLVAKESNETAMKDFGKTSPVGIEKEDGKFKISFMVTAQPYEIKDSKENAAYISMIKTAVENETPIHVFLKANTNEIAKVDKATDDDIRYFKSVFTKEVKEENRK
B4: variant deamidase propeptide F99G of Chryseobacterium sp-62563 (SEQ ID NO: 2) (other)
chain: NQDPNLVAKESNETAMKDFGKTVPVGIEKEDGKFKISFMVTAQPYEIKDSKENAAYISMIKTAVENETPIHVFLKANTNEIAKVDKATDDDIRYFKSVGTKEVKEENRK
B5: variant deamidase propeptide F99K of Chryseobacterium sp-62563 (SEQ ID NO: 2) (other)
chain: NQDPNLVAKESNETAMKDFGKTVPVGIEKEDGKFKISFMVTAQPYEIKDSKENAAYISMIKTAVENETPIHVFLKANTNEIAKVDKATDDDIRYFKSVKTKEVKEENRK
B6: variant deamidase propeptide F99A of Chryseobacterium sp-62563 (SEQ ID NO: 2) (other)
chain: NQDPNLVAKESNETAMKDFGKTVPVGIEKEDGKFKISFMVTAQPYEIKDSKENAAYISMIKTAVENETPIHVFLKANTNEIAKVDKATDDDIRYFKSVATKEVKEENRK
B7: variant deamidase propeptide Y45T of Chryseobacterium sp-62563 (SEQ ID NO: 2) (other)
chain: NQDPNLVAKESNETAMKDFGKTVPVGIEKEDGKFKISFMVTAQPTEIKDSKENAAYISMIKTAVENETPIHVFLKANTNEIAKVDKATDDDIRYFKSVFTKEVKEENRK
B8: variant deamidase propeptide F38C of Chryseobacterium sp-62563 (SEQ ID NO: 2) (other)
chain: NQDPNLVAKESNETAMKDFGKTVPVGIEKEDGKFKISCMVTAQPYEIKDSKENAAYISMIKTAVENETPIHVFLKANTNEIAKVDKATDDDIRYFKSVFTKEVKEENRK
B9: variant deamidase propeptide Y45G of Chryseobacterium sp-62563 (SEQ ID NO: 2) (other)
chain: NQDPNLVAKESNETAMKDFGKTVPVGIEKEDGKFKISFMVTAQPGEIKDSKENAAYISMIKTAVENETPIHVFLKANTNEIAKVDKATDDDIRYFKSVFTKEVKEENRK
B10: propeptide from Chryseobacterium defluvii (propeptide domain of the fusion polypeptide SEQ ID NO: 20) (other)
chain: ATNQDVVGKENTSNHVAARDFGKTVPVGINEENGTLKVSFILSAQFYEIKPSKENEEYISLIRQAIQNESPIHVFMKLNSNEIVKVEKGTEEDVKYFRSILTKEVKEENRK
B11: propeptide from Chryseobacterium culicis (propeptide domain of the fusion polypeptide SEQ ID NO: 15) (other)
chain: NQDPNLVAKESNEIAMKDFGKTVPVGIEKEEGKFKVSFMVSAQPYHIKDSKENAGYISMIRQAVENETPVHIFLKTNTNEIAKVDKPTDDDIRYFKSVFTKEVKEENRK
B12: propeptide from Chryseobacterium gambrini (propeptide domain of the fusion polypeptide SEQ ID NO: 10) (other)
chain: NQDPNLVVKENNENAMRDFGSTIPVGIQKEGNVLKVSFIISAQFYEIKDSKENEAFISMIKSAIENETPVHVFLKKNSNEIAKVEKATDEDVTYFKSIFTKEVKEENRK

Key:
Assay in all cases: cell-based or functional assay
[1] = biological target: T1, deamidase polypeptide from …
[2] = biological target: T1, deamidase polypeptide from …
[3] = biological target: T1, deamidase polypeptide from …
[4] = biological target: T1, deamidase polypeptide from …
[5] = biological target: T2, deamidase polypeptide from …
[6] = biological target: T3, deamidase polypeptide from …
[7] = biological target: T4, deamidase polypeptide from …

Binder	Leakage activity [2] [%]	Relative activity of "activated" sample (% initial rate) [3] [%]	NanoDSF thermal unfolding temperature [4] [°C]	further results
B1	–	–	–	NanoDSF thermal unfolding temperature [1]: 85.3 °C
B2	23	≥ 100	75.2	–
B3	10	≥ 100	69.8	–
B4	20	≥ 100	74.1	–
B5	32	≥ 100	75.4	–
B6	20	≥ 100	76.4	–
B7	2	≥ 100	73.7	–
B8	26	≥ 100	76.2	–
B9	2	≥ 100	65.2	–
B10	–	–	–	NanoDSF thermal unfolding temperature [5]: 89 °C
B11	–	–	–	NanoDSF thermal unfolding temperature [6]: 85.2 °C
B12	–	–	–	NanoDSF thermal unfolding temperature [7]: 89.3 °C
